B1: CsCCD4b-probe (dsDNA)
DNA 1: GTACCATACAACTGTGGCACCATAGCTGGATC
DNA 2: GATCCAGCTATGGTGCCACAGTTGTATGGTAC
B2: CsLCYb-probe (dsDNA)
DNA 1: CGACAGTTGGACCACTAGCTTCGTGACCGTTGT
DNA 2: ACAACGGTCACGAAGCTAGTGGTCCAACTGTCG
B3: CsBCH-probe (dsDNA)
DNA 1: AATTTCGAATCTAACAAATGTTTCGTTGATAT
DNA 2: ATATCAACGAAACATTTGTTAGATTCGAAATT
B4: CsMPK6-probe (dsDNA)
DNA 1: AGCTCTATGTAACAACTGGGATCTATTTGAAA
DNA 2: TTTCAAATAGATCCCAGTTGTTACATAGAGCT
B5: CsPSY-probe (dsDNA)
DNA 1: AAAACTTCAATTGATACTCTTCCACTAATTCT
DNA 2: AGAATTAGTGGAAGAGTATCAATTGAAGTTTT

Experiments:
CsMYC2-His = CsMYC2-His (Citrus sinensis (Newhall orange), UniProt V4SX11 1-519); test: BLI; BLI: PBS, 100 nM biotin probe on SA sensors, CsMYC2-His 62.5-1000 nM, 1:1 fit. DNA pull-down: probe bound to beads in 10 mM Tris-HCl pH 7.5, 1 mM EDTA, 1 M NaCl, 0.1% Tween-20 at RT, then protein 1 h on ice. EMSA: as in Yue et al. 2019, buffer not given; conditions: protein: recombinant; tags: His (pET30A); chain copies: 2; label: 3' biotin
CsMYC2-MBP = CsMYC2-MBP (Citrus sinensis (Newhall orange), UniProt V4SX11 1-519); test: EMSA; BLI: PBS, 100 nM biotin probe on SA sensors, CsMYC2-His 62.5-1000 nM, 1:1 fit. DNA pull-down: probe bound to beads in 10 mM Tris-HCl pH 7.5, 1 mM EDTA, 1 M NaCl, 0.1% Tween-20 at RT, then protein 1 h on ice. EMSA: as in Yue et al. 2019, buffer not given; conditions: protein: recombinant; tags: MBP (pMAL-C2X); chain copies: 2; label: 3' biotin
Sequence of CsMYC2-MBP (V4SX11 entry or part of it): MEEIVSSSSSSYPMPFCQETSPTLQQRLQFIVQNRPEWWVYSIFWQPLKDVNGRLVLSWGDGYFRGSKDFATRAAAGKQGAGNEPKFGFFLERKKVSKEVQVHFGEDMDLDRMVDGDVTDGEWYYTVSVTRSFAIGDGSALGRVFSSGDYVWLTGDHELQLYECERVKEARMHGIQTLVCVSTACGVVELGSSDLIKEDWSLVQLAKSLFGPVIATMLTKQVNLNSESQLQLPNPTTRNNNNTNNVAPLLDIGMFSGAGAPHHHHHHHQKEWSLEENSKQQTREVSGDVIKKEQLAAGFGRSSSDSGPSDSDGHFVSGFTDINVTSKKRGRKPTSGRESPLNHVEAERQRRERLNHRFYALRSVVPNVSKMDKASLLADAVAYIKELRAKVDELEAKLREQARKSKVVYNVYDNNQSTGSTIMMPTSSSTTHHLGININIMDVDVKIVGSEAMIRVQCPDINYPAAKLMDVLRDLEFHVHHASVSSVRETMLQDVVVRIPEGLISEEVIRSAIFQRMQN

Sequence of CsMYC2-His (V4SX11 entry or part of it): as above

| Binder | Kd (CsMYC2-His) | binding result (CsMYC2-MBP) |
| --- | --- | --- |
| B1 | 58 nM |  |
| B2 |  | binds |
| B3 |  | binds |
| B4 |  | binds |
| B5 |  | binds |

From paper PMC10052374, “Jasmonate activates a CsMPK6-CsMYC2 module that regulates the expression of β-citraurin biosynthetic genes and fruit coloration in orange (Citrus sinensis)”
